Test results as given in patent US20240228595A1.

How the values were obtained:
[1] = molecular target: SARS-COV-2 Omicron BA.1 spike on HIV-1 based pseudovirus (Example 3) (SARS-CoV-2 Omicron BA.1) (UniProt P0DTC2); test: cell-based or functional assay
[2] = molecular target: SARS-COV-2 Omicron BA.2 spike on HIV-1 based pseudovirus (SARS-CoV-2 Omicron BA.2) (UniProt P0DTC2); test: cell-based or functional assay
[3] = molecular target: SARS-COV-2 Delta RBD (Sino Biological Cat. No. 40592-V08H90) (SARS-CoV-2 Delta) (UniProt P0DTC2); test: ELISA, SARS-CoV-2-Delta RBD coated, antibody titrated
[4] = molecular target: SARS-COV-2 Omicron RBD recombinant protein (Sino Biological 40592-V08H121) (SARS-CoV-2 Omicron BA.1) (UniProt P0DTC2); test: ELISA, SARS-CoV-2-Omicron BA.1 RBD coated, antibody titrated
[5] = molecular target: SARS-COV-2 Omicron BA.2 RBD (AcroBiosystems Cat. No. SPD-C522g) (SARS-CoV-2 Omicron BA.2) (UniProt P0DTC2); test: ELISA, SARS-CoV-2-Omicron BA.2 RBD coated, antibody titrated

Substance: S309 (Sotrovimab) (antibody)
- pseudovirus neutralization, IC50 [1]: 446 ng/mL
- pseudovirus neutralization, IC50 [2]: 2750 ng/mL
- pseudovirus neutralization, fold drop of activity against Omicron BA.2 [2]: 30 fold
- EC50 [3]: 2 ng/mL
- EC50 [4]: 6 ng/mL
- EC50 [5]: 4 ng/mL
